B1: bovine papillomavirus type 1 (BPV1) L2 minor capsid protein (other)
chain: MSARKRVKRASAYDLYRTCKQAGTCPPDVIPKVEGDTIADKILKFGGLAIYLGGLGIGTWSTGRVAAGGSPRYTPLRTAGSTSSLASIGSRAVTAGTRPSIGAGIPLDTLETLGALRPGVYEDTVLPEAPAIVTPDAVPADSGLDALSIGTDSSTETLITLLEPEGPEDIAVLELQPLDRPTWQVSNAVHQSSAYHAPLQLQSSIAETSGLENIFVGGSGLGDTGGENIELTYFGSPRTSTPRSIASKSRGILNWFSKRYYTQVPTEDPEVFSSQTFANPLYEAEPAVLKGPSGRVGLSQVYKPDTLTTRSGTEVGPQLHVRYSLSTIHEDVEAIPYTVDENTQGLAFVPLHEEQAGFEEIELDDFSETHRLLPQNTSSTPVGSGVRRSLIPTQEFSATRPTGVVTYGSPDTYSASPVTDPDSTSPSLVIDDTTTTPIIIIDGHTVDLYSSNYTLHPSLLRKRKKRKHA
notes: mature; Expressed from recombinant Semliki Forest virus in BHK-21 or BPHE-1 cells; also called BPV L2

What was measured:
[1] = target: T1, bovine papillomavirus type 1 (BPV1) L1 major capsid protein (bovine papillomavirus type 1 (BPV1), UniProt P03103 1-495); assay: co-expression from recombinant SFV in BHK-21 cells; heading of the section
T1 construct: mature; Expressed from recombinant Semliki Forest virus in BHK-21 or BPHE-1 cells; self-assembles into VLPs; also called BPV L1

[2] = target: B1; assay: coimmunoprecipitation; cosedimentation in sucrose gradients

Binder	binding result [1]	binding result [2]
B1	binds	
BPV E2 protein (full-length 48 kD form) (other, mature; BPHE-1 cells express three forms of E2; SFV-E2 gives only the 48 kD form) METACERLHVAQETQMQLIEKSSDKLQDHILYWTAVRTENTLLYAARKKGVTVLGHCRVPHSVVCQERAKQAIEMQLSLQELSKTEFGDEPWSLLDTSWDRYMSEPKRCFKKGARVVEVEFDGNASNTNWYTVYSNLYMRTEDGWQLAKAGADGTGLYYCTMAGAGRIYYSRFGDEAARFSTTGHYSVRDQDRVYAGVSSTSSDFRDRPDGVWVASEGPEGDPAGKEAEPAQPVSSLLGSPACGPIRAGLGWVRDGPRSHPYNFPAGSGGSILRSSSTPVQGTVPVDLASRQEEEEQSPDSTEEEPVTLPRRTTNDGFHLLKAGGSCFALISGTANQVKCYRFRVKKNHRHRYENCTTTWFTVADNGAERQGQAQILITFGSPSQRQDFLKHVPLPPGMNISGFTASLDF		no binding
